{
  "source": "patent US20230002466A1",
  "about": "(ELPIS BIOPHARMACEUTICALS, published 2023)",
  "binders": {"B1": {"name": "EP253 (ligand)", "chain": "APTSSSTKKTQLQLEHLLLDLQMILNGINNYKNPKLTRMLTFKFYMPKKATELKHLQCLEEELKPLEEVLNLAQSKNFHLTPRDAIDNIRVIILELKGSETTFMCEYADETATIVEFLNRWITFCQSIISTLT", "notes": "not shown: His and Flag tags"}, "B2": {"name": "EP338 (ligand)", "chain": "APTSSSTKKTQLQLEHLLLDLQMILNGINNYKNPLLTDMLTRKFYMPKKATELKHLQCLEEELKPLEEVLNLAQSKNFHLTARDAISNINVIIQELKGSETTFMCEYADETATIVEFLNRWITFCQSIISTLT", "notes": "not shown: His and Flag tags"}, "B3": {"name": "EP339 (ligand)", "chain": "APTSSSTKKTQLQLEHLLLDLQMILNGINNYKNPLLTDMLTRKFYMPKKATELKHLQCLEEELKPLEEVLNLAQSKNFHLTPRDAIDNIRVIVQELKGSETTFMCEYADETATIVEFLNRWITFCQSIISTLT", "notes": "not shown: His and Flag tags"}, "B4": {"name": "EP401 (ligand)", "chain": "APTSSSTKKTQLQLEHLLLDLQMILNGINNYKNPSLTRMLTGKFYMPKKATELKHLQCLEEELKPLEEVLNLAQSKNFHLTARDAVDNMRVIIQELKGSETTFMCEYADETATIVEFLNRWITFCQSIISTLT", "notes": "not shown: His and Flag tags"}, "B5": {"name": "EP402 (ligand)", "chain": "APTSSSTKKTQLQLEHLLLDLQMILNGINNYKNPSLTRMLTGKFYMPKKATELKHLQCLEEELKPLEEVLNLAQSKNFHLGVTDSISNAIVLARELKGSETTFMCEYADETATIVEFLNRWITFCQSIISTLT", "notes": "not shown: His and Flag tags"}, "B6": {"name": "EP407 (ligand)", "chain": "APTSSSTKKTQLQLEHLLLDLQMILNGINNYKNPKLTDMLTFKFSMPKKATELKHLQCLEEELKPLEEVLNLAQSKNFHLTARDAVDNMRVIIQELKGSETTFMCEYADETATIVEFLNRWITFCQSIISTLT", "notes": "not shown: His and Flag tags"}, "B7": {"name": "EP408 (ligand)", "chain": "APTSSSTKKTQLQLEHLLLDLQMILNGINNYKNPKLTDMLTFKFSMPKKATELKHLQCLEEELKPLEEVLNLAQSKNFHLGVTDSISNAIVLARELKGSETTFMCEYADETATIVEFLNRWITFCQSIISTLT", "notes": "not shown: His and Flag tags"}, "B8": {"name": "EP341 (ligand)", "chain": "APTSSSTKKTQLQLEHLLLDLQMILNGINNYKNPKLTDMLTFKFSMPKKATELKHLQCLEEELKPLEEVLNLAQSKNFHLTARDAIDNINVIVQELKGSETTFMCEYADETATIVEFLNRWITFSQSIISTLTGSHHHHHH"}},
  "key": {"[1]": {"target": "T1, human IL2Rα Fc fusion protein (human, UniProt P01589 22-213, limits assumed)", "T1 construct": "also called Recombinant Fc-tagged human IL2Rα; not shown: Fc", "T1 sequence (looked up)": "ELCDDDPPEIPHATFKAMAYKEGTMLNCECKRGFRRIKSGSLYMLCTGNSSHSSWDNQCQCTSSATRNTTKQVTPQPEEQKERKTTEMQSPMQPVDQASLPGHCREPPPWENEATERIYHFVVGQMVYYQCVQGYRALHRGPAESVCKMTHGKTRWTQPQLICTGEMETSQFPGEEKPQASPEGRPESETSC", "test": "ELISA, Fc-tagged receptor coated, anti-HisTag-HRP", "in_short": "(§1)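 IL2 mutants, diluted from 1000 nM to 0 nM, were incubated 2 h at RT on plates coated overnight at 4 °C with Fc-tagged human IL2Rα (or IL2Rβ). Bound protein detected with anti-HisTag-HRP (1:5000, 1 h) and TMB. Absorbance read at 450 nm after acid stop.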"}, "[2]": {"target": "T2, human IL2Rβ Fc fusion protein (human, UniProt P14784 27-239)", "T2 construct": "also called Recombinant Fc-tagged human IL2Rβ; not shown: Fc", "T2 sequence (looked up)": "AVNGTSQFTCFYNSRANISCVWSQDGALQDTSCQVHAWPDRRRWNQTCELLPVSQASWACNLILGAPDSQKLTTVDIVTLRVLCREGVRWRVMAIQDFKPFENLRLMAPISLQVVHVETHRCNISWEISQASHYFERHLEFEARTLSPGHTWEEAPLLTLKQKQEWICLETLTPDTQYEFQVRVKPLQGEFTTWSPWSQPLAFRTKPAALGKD", "test": "ELISA, Fc-tagged receptor coated, anti-HisTag-HRP", "in_short": "as §1"}, "[3]": {"target": "T1, human IL2Rα Fc fusion protein", "test": "ELISA, receptor-Fc coated, anti-Flag HRP", "in_short": "(§2)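 Plates coated overnight at 4 C with IL2Rα or IL2Rβ Fc fusion at 2 ug/mL, then blocked. Flag-tagged IL2 mutant dilutions were added in duplicate, and binding was detected with anti-Flag HRP (1:5000) and TMB for 5 min. EC50 was fitted from OD450.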"}, "[4]": {"target": "T2, human IL2Rβ Fc fusion protein", "test": "ELISA, receptor-Fc coated, anti-Flag HRP", "in_short": "as §2"}, "human IL2Rβ [5]": {"target": "T3, human IL2Rβ (human, UniProt P14784 27-239)", "T3 construct": "also called IL2β; CD122", "T3 sequence (looked up)": "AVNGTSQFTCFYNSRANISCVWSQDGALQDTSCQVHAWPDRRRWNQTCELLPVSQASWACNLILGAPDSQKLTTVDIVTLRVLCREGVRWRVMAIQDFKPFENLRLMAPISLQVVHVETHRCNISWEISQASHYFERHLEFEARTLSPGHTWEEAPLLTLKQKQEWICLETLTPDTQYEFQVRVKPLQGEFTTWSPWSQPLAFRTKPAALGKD", "test": "SPR, IL2Rβ captured on Protein A chip, steady state affinity fitting", "experimental": "The assay was run with Biacore T200 control software version 2.0. For each cycle, 1 ug/mL of human IL2Rβ was captured for 60 seconds at flow rate of 10 uL/min on flow cell 2 in 1×HBSP buffer on Protein A sensor chip. 100 nM of HIS and Flag tag purified each IL2 mutant was 2-fold serial diluted and injected onto both reference flow cell 1 and IL2Rβ captured flow cell 2 for 150 seconds at flow rate of 30 uL/min followed by washing for 300 seconds. The flow cells were then regenerated with Glycine pH2 for 60 seconds at a flow rate of 30 uL/min. The assay was set up with 8 serial diluted concentration points in 96-well format. The kinetics data was analyzed with Biacore T200 evaluation software 3.0. The specific binding response unit was derived from subtraction of binding to reference flow cell 1 from target flow cell 2 (FIGS. 16A-16F, Table 10)."}, "human IL2Rα [6]": {"target": "T4, human IL2Rα (human, UniProt P01589 22-213, limits assumed)", "T4 construct": "also called IL2α; CD25", "T4 sequence (looked up)": "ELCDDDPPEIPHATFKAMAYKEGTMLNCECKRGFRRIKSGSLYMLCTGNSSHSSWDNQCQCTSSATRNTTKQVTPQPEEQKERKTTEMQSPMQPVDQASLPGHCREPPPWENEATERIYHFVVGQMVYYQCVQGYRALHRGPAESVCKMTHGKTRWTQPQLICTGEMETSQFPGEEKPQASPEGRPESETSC", "test": "SPR (Biacore T200), human IL2Rα, one trace per clone drawn, concentrations not printed (Example 13)"}, "human IL2Rβ [7]": {"target": "T3, human IL2Rβ", "test": "SPR, multi-concentration"}, "[8]": {"target": "T1, human IL2Rα Fc fusion protein", "test": "ELISA, single point, Fc-tagged human IL2Rα coated, anti-His-HRP; concentration not printed (Example 14)", "in_short": "as §1"}, "human IL2Rα [9]": {"target": "T4, human IL2Rα", "test": "SPR (Biacore T200), human IL2Rα, IL2 mutant in two-fold dilutions from 100 nM (Example 13)"}, "human IL2Rβ [10]": {"target": "T3, human IL2Rβ", "test": "SPR, IL2Rβ captured on Protein A chip", "experimental": "Kinetic analysis of the receptor binding activities of IL2Rβ agonist with IL2Rα reduced activity mutations have been assessed by SPR technology with Biacore T200. The assay was run with Biacore T200 control software version 2.0. For each cycle, 1 ug/mL of human IL2Rβ was captured for 60 seconds at flow rate of 10 ul/min on flow cell 2 in 1×HBSP buffer on Protein A sensor chip. 100 nM of HIS and Flag tag purified each IL2 mutant was 2 fold serial diluted and injected onto both reference flow cell 1 and IL2Rβ captured flow cell 2 for 150 seconds at flow rate of 30 ul/mins followed by wash for 300 seconds. The flow cells were then regenerated with Glycine pH2 for 60 seconds at flow rate of 30 ul/mins. The assay was set up with 8 serial diluted concentration points in 96 well format. The kinetics data was analyzed with Biacore T200 evaluation software 3.0. The specific binding response unit was derived from subtraction of binding to reference flow cell 1 from target flow cell 2."}, "human IL2Rα [11]": {"target": "T4, human IL2Rα", "test": "SPR (Biacore T200), human IL2Rα, IL2 mutant in two-fold dilutions from 100 nM (Example 13)", "remark": "listed apart in the source"}, "human IL2Rα [12]": {"target": "T4, human IL2Rα", "test": "SPR (Biacore T200), human IL2Rα, IL2 mutant in two-fold dilutions from 100 nM (Example 13)", "remark": "listed apart in the source"}, "human IL2Rα [13]": {"target": "T4, human IL2Rα", "test": "SPR (Biacore T200), human IL2Rα, IL2 mutant in two-fold dilutions from 100 nM (Example 13)", "remark": "listed apart in the source"}, "human IL2Rα [14]": {"target": "T4, human IL2Rα", "test": "SPR (Biacore T200), human IL2Rα, single concentration of the IL2 protein, not printed (Example 13)"}, "human IL2Rβ [15]": {"target": "T3, human IL2Rβ", "test": "SPR, single concentration"}},
  "data": [
    {"binder": "B1", "values": [
      {"measurement": "EC50", "setting": "[1]", "value": 8.9, "unit": "nM"},
      {"measurement": "EC50", "setting": "[2]", "value": 52.8, "unit": "nM"},
      {"measurement": "EC50", "setting": "[3]", "value": 48.5, "unit": "nM"},
      {"measurement": "EC50", "setting": "[4]", "value": 4.8, "unit": "nM"},
      {"measurement": "Kd", "setting": "human IL2Rβ [5]", "value": 29.5, "unit": "nM"}
    ]},
    {"binder": "B2", "values": [
      {"measurement": "binding result", "setting": "human IL2Rα [6]", "value": "no binding (tested: not printed)"},
      {"measurement": "EC50", "setting": "[2]", "value": 105, "unit": "nM"},
      {"measurement": "Kd", "setting": "human IL2Rβ [7]", "value": 38.3, "unit": "nM"},
      {"measurement": "binding result", "setting": "[8]", "value": "no binding (tested: not printed)"}
    ]},
    {"binder": "B3", "values": [
      {"measurement": "binding result", "setting": "human IL2Rα [6]", "value": "no binding (tested: not printed)"},
      {"measurement": "EC50", "setting": "[2]", "value": 96.3, "unit": "nM"},
      {"measurement": "Kd", "setting": "human IL2Rβ [7]", "value": 35.9, "unit": "nM"},
      {"measurement": "binding result", "setting": "[8]", "value": "no binding (tested: not printed)"}
    ]},
    {"binder": "B4", "values": [
      {"measurement": "binding result", "setting": "human IL2Rα [9]", "value": "no binding (tested: 100 nM)"},
      {"measurement": "Kd", "setting": "human IL2Rβ [10]", "value": 0.855, "unit": "nM"},
      {"measurement": "koff", "setting": "human IL2Rβ [10]", "value": 0.00616, "unit": "s⁻¹"},
      {"measurement": "kon", "setting": "human IL2Rβ [10]", "value": "7.21e+06", "unit": "M⁻¹ s⁻¹"}
    ]},
    {"binder": "B5", "values": [
      {"measurement": "binding result", "setting": "human IL2Rα [11]", "value": "no binding (tested: 100 nM)"},
      {"measurement": "Kd", "setting": "human IL2Rβ [10]", "value": 0.108, "unit": "nM"},
      {"measurement": "koff", "setting": "human IL2Rβ [10]", "value": 0.000397, "unit": "s⁻¹"},
      {"measurement": "kon", "setting": "human IL2Rβ [10]", "value": "3.68e+06", "unit": "M⁻¹ s⁻¹"}
    ]},
    {"binder": "B6", "values": [
      {"measurement": "Kd", "setting": "human IL2Rβ [10]", "value": 0.611, "unit": "nM"},
      {"measurement": "koff", "setting": "human IL2Rβ [10]", "value": 0.00509, "unit": "s⁻¹"},
      {"measurement": "kon", "setting": "human IL2Rβ [10]", "value": "8.34e+06", "unit": "M⁻¹ s⁻¹"},
      {"measurement": "binding result", "setting": "human IL2Rα [12]", "value": "no binding (tested: 100 nM)"}
    ]},
    {"binder": "B7", "values": [
      {"measurement": "Kd", "setting": "human IL2Rβ [10]", "value": 0.233, "unit": "nM"},
      {"measurement": "koff", "setting": "human IL2Rβ [10]", "value": 0.000598, "unit": "s⁻¹"},
      {"measurement": "kon", "setting": "human IL2Rβ [10]", "value": "2.56e+06", "unit": "M⁻¹ s⁻¹"},
      {"measurement": "binding result", "setting": "human IL2Rα [13]", "value": "no binding (tested: 100 nM)"}
    ]},
    {"binder": "B8", "values": [
      {"measurement": "binding result", "setting": "human IL2Rα [14]", "value": "no binding (tested: single concentration, not printed)"},
      {"measurement": "Kd", "setting": "human IL2Rβ [15]", "value": 2.54, "unit": "nM"},
      {"measurement": "EC50", "setting": "[2]", "value": 64.1, "unit": "nM"},
      {"measurement": "binding result", "setting": "[8]", "value": "no binding (tested: not printed)"}
    ]}
  ]
}
